Source: PMC6650482, “Tyrosine 51 residue of the syndecan-2 extracellular domain is involved in the interaction with and activation of pro-matrix metalloproteinase-7” (Scientific Reports, 2019)

Assays:
MMP-7 in HT-29 cells [1] = test: MMP-7 expression on IL-1α treatment; assay type: cell-based, human; details: 1 ng/ml IL-1α, syndecan-2- and Y51A-expressing HT-29 cells
Procedure: Figure 6 Tyrosine 51 of the syndecan-2 extracellular domain is involved in regulating pro-MMP-7 activation. (A) HT-29 cells were transiently transfected with 1 µg of vectors encoding SDC2 or the interaction-defective syndecan-2 mutant, Y51A, and the mRNA expression levels of SDC2 and MMP-7 were evaluated by RT-PCR (top). Conditioned media (CM) were collected and proteolytic activity was measured using quenched fluorescence peptide cleavage assay. The relative activity was normalized versus the fluorescence of a vector control (bottom). Data are shown as mean ± S.D. (n = 3), **p < 0.01 versus VEC or SDC2. (B) HT-29 cells were stably transfected with vectors encoding SDC2 or Y51A. The expression levels of the target mRNAs were analyzed by RT-PCR and quantitative real-time PCR (q-PCR) of three independent experiments was performed and normalized to GAPDH expression. Data are shown as mean ± S.D. (n = 3), *p < 0.05, **p < 0.01 versus VEC or SDC2 (left). […] CM were collected and proteolytic activity was measured using quenched fluorescence peptide cleavage assay (right bottom). […] The mRNA expression levels of SDC2 and MMP-7 were evaluated with RT-PCR (left top). CM were collected from the indicated cells and immunoblotted with an anti-MMP-7 antibody (left bottom) or subjected to quenched fluorescence peptide cleavage activity assay (right). […]

MMP-7 in HT-29 cells [2] = details: cited from earlier work
From the text: Since syndecan-2 is known to mediate the activation of pro-MMP-7, we investigated how interrupting their interaction could affect syndecan-2-mediated MMP-7 activation. Firstly, we investigated whether the expression of syndecan-2 affects that of MMP-7.

B1: IL-1α: IL-1α was purchased from R&D Systems (protein, UniProt P01583 113-271, looked up)
Interleukin-1 alpha: SAPFSFLSNVKYNFMRIIKYEFILNDALNQSIIRANDQYLTAAALHNLDEAVKFDMGAYKSSKDDAKITVILRISKTQLYVTAQDEDQPVLLKEMPEIPKTITGSETNLLFFWETHGTKNYFTSVAHPNLFIATKQDYWVCLAGGPPSITDFQILENQA
MMP-7 expression (MMP-7 in HT-29 cells [1]): upregulation of MMP-7
MMP-7 expression in colon cancer cells (MMP-7 in HT-29 cells [2]): known to induce MMP-7 expression
